Measurements reported in doi:10.1101/509869 (bioRxiv, 2019).

Target: the molecule itself
Experiment: SEC-MALS

B1: TEX12core (human TEX12, amino acids 49-123) (domain or fragment, UniProt Q9BXU0 49-123, looked up)
chain: KDEALEKDLNDVSKEINLMLSTYAKLLSERAAVDASYIDEIDELFKEANAIENFLIQKREFLRQRFTVIANTLHR
stoichiometry N: 2

B2: TEX12 (human, amino acids 1-123, full length) (natural protein, UniProt Q9BXU0 1-123, looked up)
chain: MMANHLVKPDNRNCKRPRELESPVPDSPQLSSLGKSDSSFSEISGLFYKDEALEKDLNDVSKEINLMLSTYAKLLSERAAVDASYIDEIDELFKEANAIENFLIQKREFLRQRFTVIANTLHR
stoichiometry N: 2
